This note sets out measurements from PMC12368639.

The target of this test is Cluster of Differentiation 147 (CD147) (human). As to the kind of experiment: single-molecule force spectroscopy (AFM).
Chain of Cluster of Differentiation 147 (CD147) (human) (P35613 other isoform, or with tags, fused parts or gaps): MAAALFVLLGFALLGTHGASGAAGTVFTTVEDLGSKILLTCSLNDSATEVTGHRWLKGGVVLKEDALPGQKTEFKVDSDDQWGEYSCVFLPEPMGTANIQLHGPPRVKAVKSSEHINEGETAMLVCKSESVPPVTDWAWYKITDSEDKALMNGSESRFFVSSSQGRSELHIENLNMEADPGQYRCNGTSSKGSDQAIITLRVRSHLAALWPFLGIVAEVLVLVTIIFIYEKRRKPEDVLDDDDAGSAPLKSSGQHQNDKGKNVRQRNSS

As for “Full length Spike Protein (SARS-CoV-2) (from UniProt P0DTC2) (natural protein)”, the mean adhesion force is 41.9 pN, the mean adhesion force (tip contact time 0 s) came to 38.8 pN and the mean adhesion force at 37 °C amounted to 46.2 pN.
